Experiment [1] has as its target atypical chemokine receptor 3 (human (endogenous in hPPAEC)) (UniProt P25106).
Experiment [2] has as its target chemokine (C-X-C) motif receptor (CXCR) 4 (human (endogenous in hPPAEC)) (UniProt P61073).
UniProt P61073, sequence (P61073 whole entry): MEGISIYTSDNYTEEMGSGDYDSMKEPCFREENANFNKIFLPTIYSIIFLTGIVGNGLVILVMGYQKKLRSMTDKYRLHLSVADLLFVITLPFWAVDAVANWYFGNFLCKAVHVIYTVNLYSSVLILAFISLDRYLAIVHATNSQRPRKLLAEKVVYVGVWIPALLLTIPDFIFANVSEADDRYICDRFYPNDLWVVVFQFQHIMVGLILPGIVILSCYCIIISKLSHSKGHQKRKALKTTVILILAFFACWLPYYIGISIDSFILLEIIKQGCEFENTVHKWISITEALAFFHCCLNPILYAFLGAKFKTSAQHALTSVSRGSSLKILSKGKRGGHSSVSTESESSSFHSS

UniProt P25106, sequence (P25106 whole entry): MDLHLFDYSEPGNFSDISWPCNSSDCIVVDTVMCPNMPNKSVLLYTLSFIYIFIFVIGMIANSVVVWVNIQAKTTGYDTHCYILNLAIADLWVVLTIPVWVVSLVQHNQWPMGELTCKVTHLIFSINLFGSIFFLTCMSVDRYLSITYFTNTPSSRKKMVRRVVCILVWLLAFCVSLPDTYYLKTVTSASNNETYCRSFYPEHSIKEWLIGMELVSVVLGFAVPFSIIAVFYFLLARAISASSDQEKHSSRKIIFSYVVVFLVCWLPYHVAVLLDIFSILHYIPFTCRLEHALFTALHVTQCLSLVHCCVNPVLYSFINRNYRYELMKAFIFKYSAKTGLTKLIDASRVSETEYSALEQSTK

With “CXCL12 K27A/R41A/R47A (from UniProt P48061-2 22-89) (ligand)”, in experiment [1], the EC50 of β-arrestin 2 recruitment to ACKR3, Presto-Tango (Tango plasmid in HTLA cells) was found to be 1.2 nM and the efficacy (top plateau) of β-arrestin 2 recruitment to ACKR3, Presto-Tango, % of CXCL12α was 83%. In experiment [2], this substance displayed an EC50 of β-arrestin 2 recruitment to CXCR4, Presto-Tango (Tango plasmid in HTLA cells) of 145 nM and an efficacy (top plateau) of β-arrestin 2 recruitment to CXCR4, Presto-Tango, % of CXCL12α of 111%.

In experiment [1], “CXCL12 R47E (from UniProt P48061-2 22-89) (ligand)” displayed an EC50 of β-arrestin 2 recruitment to ACKR3, Presto-Tango (Tango plasmid in HTLA cells) of 0.4 nM and an efficacy (top plateau) of β-arrestin 2 recruitment to ACKR3, Presto-Tango, % of CXCL12α of 86%. Besides, in experiment [2], the EC50 of β-arrestin 2 recruitment to CXCR4, Presto-Tango (Tango plasmid in HTLA cells) was determined as 127 nM and the efficacy (top plateau) of β-arrestin 2 recruitment to CXCR4, Presto-Tango, % of CXCL12α was determined as 105%.

With “CXCL12 S-S4V, a protease resistant mutant (from UniProt P48061-2 22-89) (ligand)”, in experiment [1], the EC50 of β-arrestin 2 recruitment to ACKR3, Presto-Tango (Tango plasmid in HTLA cells) was 0.7 nM and the efficacy (top plateau) of β-arrestin 2 recruitment to ACKR3, Presto-Tango, % of CXCL12α was found to be 88%. In experiment [2], the EC50 of β-arrestin 2 recruitment to CXCR4, Presto-Tango (Tango plasmid in HTLA cells) was 75 nM and the efficacy (top plateau) of β-arrestin 2 recruitment to CXCR4, Presto-Tango, % of CXCL12α came out at 117%.

In experiment [1], “CXCL12_(1), engineered constitutively monomeric CXCL12 variant (from UniProt P48061-2 22-89) (ligand)” returned an EC50 of β-arrestin 2 recruitment to ACKR3, Presto-Tango (Tango plasmid in HTLA cells) of 5.6 nM and an efficacy (top plateau) of β-arrestin 2 recruitment to ACKR3, Presto-Tango, % of CXCL12α of 98%. Also, in experiment [2], the EC50 of β-arrestin 2 recruitment to CXCR4, Presto-Tango (Tango plasmid in HTLA cells) was determined as 27 nM and the efficacy (top plateau) of β-arrestin 2 recruitment to CXCR4, Presto-Tango, % of CXCL12α is 103%.

Consider “CXCL12_(2), disulfide-locked dimeric CXCL12 variant (from UniProt P48061-2 22-89) (ligand)”, for which, in experiment [1], the EC50 of β-arrestin 2 recruitment to ACKR3, Presto-Tango (Tango plasmid in HTLA cells) was 8.8 nM and the efficacy (top plateau) of β-arrestin 2 recruitment to ACKR3, Presto-Tango, % of CXCL12α was found to be 87%. Moreover, in experiment [2], the EC50 of β-arrestin 2 recruitment to CXCR4, Presto-Tango (Tango plasmid in HTLA cells) came out at 2.4 nM and the efficacy (top plateau) of β-arrestin 2 recruitment to CXCR4, Presto-Tango, % of CXCL12α came out at 90%.

In experiment [1], “CXCL12β (from UniProt P48061 22-93) (ligand)” displayed an EC50 of β-arrestin 2 recruitment to ACKR3, Presto-Tango (Tango plasmid in HTLA cells) of 1.5 nM and an efficacy (top plateau) of β-arrestin 2 recruitment to ACKR3, Presto-Tango, % of CXCL12α of 103%. In experiment [2], this substance had an EC50 of β-arrestin 2 recruitment to CXCR4, Presto-Tango (Tango plasmid in HTLA cells) of 1.4 nM and an efficacy (top plateau) of β-arrestin 2 recruitment to CXCR4, Presto-Tango, % of CXCL12α of 73%.

In experiment [1], “N-terminal truncated CXCL12 (3–68) (from UniProt P48061-2 24-89) (domain or fragment)” yielded an EC50 of β-arrestin 2 recruitment to ACKR3, Presto-Tango (Tango plasmid in HTLA cells) of 13.3 nM and an efficacy (top plateau) of β-arrestin 2 recruitment to ACKR3, Presto-Tango, % of CXCL12α of 19%. Moreover, the EC50 of β-arrestin 2 recruitment to CXCR4, Presto-Tango (Tango plasmid in HTLA cells) in experiment [2] was over 1000 nM.

For the origin of these results see publication PMC5681266.
